How the values were obtained:
[1] = tested on: 293T cells and Jurkat T cells; assay: RBD binding after overnight culture in the absence of glucose; design: species or system human; conditions: both 293T cells and Jurkat T cells
Method: Cell culture. 293T human embryonic kidney and HeLa cervical carcinoma cells were grown in Dulbecco's modified Eagle medium (DMEM) with high glucose (4.5 g/l) and Jurkat T-cells were grown in RPMI supplemented with 10% fetal bovine serum (FBS) at 37° C. in a 5% CO2-95% air atmosphere. For glucose starvation experiments, cells were grown in either glucose-free DMEM (Life Technologies) or glucose-free RPMI—(Dutscher) with 10% dialyzed FBS (Life Technologies) and glucose (1 g/l) was supplemented when indicated.
(§1) Binding assays. Binding assays were carried out as previously described [Manel, 2003]. Briefly, 5×10^5 cells (293T, HeLa, Jurkat or freshly isolated human erythrocytes) were incubated with 500 μl of H1RBD, H2RBD or ARBD supernatants for 30 min at 37° C., washed with PBA (1% BSA, 0.1% sodium azide in PBS), and incubated with a sheep anti-rabbit IgG antibody conjugated to fluorescein isothiocyanate (Sigma). […] Binding was analyzed on a FACSCalibur (Becton Dickinson) and data analysis was performed using CellQuest (Becton Dickinson) and WinMDI (Scripps) softwares.

[2] = tested on: human erythrocytes; assay: RBD binding on freshly isolated human erythrocytes; conditions: freshly isolated red blood cells
Method: as §1

[3] = tested on: 293T cells; assay: Hexose uptake assay: 2-deoxyglucose; assay type: cell-based, human; conditions: transfected 293T cells vs control cells
Method: Assay of hexose uptake. 2-deoxy-D[1-^3H]glucose, D[U-^14C]fructose and 3-O-[^14C]methyl-D-glucose were obtained from Amersham. Hexose uptake assay were adapted from Harrison et al. 1991). After transfection, approximately 250,000 were seeded/well in 24-well plates. […] Uptake was initiated by adding labeled hexoses to a final concentration of 0.1 mM (2 μCi/ml for 2-2-deoxy-D[1-^3H]glucose and 0.2 μCi/ml for D[U-^14C]fructose and 3-O-[^14C]methyl-D-glucose) and cells were incubated for 5′ additional minutes. Cells were then resuspended in 500 μl cold serum-free glucose-free DMEM, wash one time in serum-free glucose-free DMEM, and solubilized in 400 μl of 0.1% SDS. 3 μl was used for Bradford normalization, while the rest was used for detection of either ^3H or ^14C by liquid scintillation in a Beckman counter.

[4] = tested on: murine erythrocytes; assay: RBD binding on murine erythrocytes
[5] = tested on: MCT1 and CD147; assay: RBD binding upon overexpression of MCT1 and CD147; design: species or system human
Source text: Extracellular lactate accumulates in cell cultures following its transport across cellular membranes by the MCT1 monocarboxylate transporter [Garcia, 1994]. Because HTLV and MLV share a common organization of the extracellular envelope [Kim, 2000] and the receptors for MLV Env are multispanning metabolite transporters [Overbaugh, 2001], we assessed whether the HTLV RBD bound to MCT1. Moreover, similar to our previous data concerning expression of the HTLV receptor on T cells [Manel, 2003], expression of MCT1 chaperone CD147 [Kirk, 2000] increases during T cell activation [Kasinrerk, 1992].
Expression vectors. Full length envelope expression vectors for HTLV-1 (pCEL/2[Denesvre, 1995]) and Friend ecotropic MLV (pCEL/F [Denesvre, 1995]), have been previously described. For the HTLV-2 envelope, a fragment from pHTE2 [Rosenberg, 1998] encompassing the tax, rex and env genes and the 3′ LTR was inserted in the pCSI [Battini, 1999] vector (pCSIX.H2). […]
Binding assays. […] Binding was analyzed on a FACSCalibur (Becton Dickinson) and data analysis was performed using CellQuest (Becton Dickinson) and WinMDI (Scripps) softwares.

B1: H1RBD: first 215 residues of HTLV-1 SU fused to a C-terminal rabbit IgG Fc tag (rFc) (protein)
chain: DYSPSCCTLTIGVSSYHSKPCNPAQPVCSWTLDLLALSADQALQPPCPNLVSYSSYHATYSLYLFPHWIKKPNRNGGGYYSASYSDPCSLKCPYLGCQSWTCPYTGAVSSPYWKFQQDVNFTQEVSRLNINLHFSKCGFPFSLLVDAPGYDPIWFLNTEPSQLPPTAPPLLPHSNLDHILEPSIPWKSKLLTLVQVDVPRDCGCKPCICTVPEVSSVFIFPPKPKDVLTITLTPKVTCVVVDISKDDPEVQFSWFVDDVEVHTAQTQPREEQFNSTFRSVSELPIMHQDWLNGKEFKCRVNSAAFPAPIEKTISKTKGRPKAPQVYTIPPPKEQMAKDKVSLTCMITDFFPEDITVEWQWNGQPAENYKNTQPIMDTDGSYFVYSKLNVQKSNWEAGNTFTCSVLHEGLHNHHTEKSLSHSPGK
[1]
  increase of binding after overnight culture in the absence of glucose: 2 fold
[2]
  binding on human erythrocytes: strikingly efficient
[3]
  decrease in 2-deoxyglucose uptake: approximately 4 fold
[4]
  binding on murine erythrocytes: no significant H1RBD binding could be detected
[5]
  H1RBD binding upon separate and combined overexpression of MCT1 and CD147: did not result in increased H1RBD binding
